# Assay results as given in patent US9340769B2 (priority 2008, dated 2016).
# B1: sialidase: recombinant P. acnes cell wall-anchored sialidase (gi|50843035) 6×NH fusion protein; enzyme and, with Freund adjuvants, vaccine (protein)
# chain: MTLTTKLSALAIAGIMAVIGAPMVTQSAMASGRAPAPDAATTQPKLVTGDITSTDQSGTHLFFGKNIVRNAKGAIMKVDRTWPAAVPAPLPDVRADSSTRMLLGPVVDLAVNEHPAGVFYRIPALATASNGDLLASYDLRPGSAADAPNPNSIVQRRSRDNGRTRGPQTVIHAGTLGRRKVGYSDPSYLVDPATGHILNFHVKSYDRGFATSEVGTDPDDRHVLHAEVSTSTDNGHTWTYRDITREITPDPTTRTRFVASGQGIALLHGPHAGGLIAQMTVRNSVGQQAQSIYSDDHGITWHAGNPVGRMMDENKVVELSDGTLMLNSRDAARSGRRKVAYSHDGGLTWGPVKLVDDLIDPTNNAQIIRAYPNARAGSAKARILLFTNARNATERVNGTLSVSCDDGRTWVSHQTYMPGEVGYTTAAVQSDGALGVLWERDGIRYSTIPMGWLNSVCPVAPSGRPTSGEPTSGTSLPLTATPSGSLHGGASSRPTSLPHTGD
# modifications: left off: small tags and cut ends
# What was measured:
# stratum corneum barrier = type: in vivo, ICR mice
# [1] = system: HaCaT cells co-cultured with P. acnes; test: P. acnes-mediated cell death: neutralization assay / ASMase inhibitor, HaCaT; conditions: desipramine 10 μM, 14 hr; 43.4% with PBS vehicle
# P. acnes [2] = test: Effect of desipramine on P. acnes-induced inflammation in vivo (ear thickness); parameters: species or system ICR mice; conditions: 20 mg/kg i.p. 30 min before challenge; 24 hr
# Procedure: (A) Amount of soluble ASMase in mouse ear increased 24 hr after bacteria challenge. Ears of ICR mice were intradermally injected with of P. acnes in PBS (1×10^7 CFU/20 μl; left ear) or PBS (20 μl; right ear), and excised after 24 hr. Ear tissue was obtained with a 8 mm biopsy and homogenized in PBS. The supernatant (1 ug of total protein) was subjected to Western blotting. ASMase (upper panels) and GAPDH (lower panels) were detected with goat anti-ASMase IgG followed by anti-GAPDH IgG (left panels). Normal goat or mouse IgG was used as a negative control for the detection (right panels). (B) P. acnes challenge into mouse ear attracted CD11b+ macrophages which highly expressed ASMase. Frozen sections of mouse ear obtained 24 after bacteria challenge were stained with biotinylated anti-mouse CD11b IgG, a conventional macrophage marker, and TRITC-streptavidin conjugate, followed by Goat anti-ASMase IgG and anti-goat IgG-TRITC conjugate. The nuclei were stained with DAPI (blue). Bar=200 μm. (C) Transmission electron microscopy (10,000× magnification) was used to visualize colonized P. acnes and ruptured cell membrane in mouse ears injected with P. acnes or PBS. PA, P. acnes; CM, cell membrane; NC, nucleus. Bar=1 μm. (D) Systemic pre-treatment of ICR mice with selective ASMase inhibitor relieved P. acnes-induced inflammation. […]
# [3] = system: sialic acids on the surface of human SZ95 sebocytes; test: Sialidase enzyme activity: removal of surface sialic acids from sebocytes (MAA lectin I / streptavidin-FITC flow cytometry); conditions: compared among three cloned P. acnes sialidases
# P. acnes [4] = test: P. acnes-induced ear thickness/redness in immunized mice (subcutaneous ear challenge)
# human SZ95 sebocytes = test: Susceptibility of sialidase-treated sebocytes to P. acnes (cell death by trypan blue, adherence by CFU); conditions: pre-treatment 10 μg/ml for 2 h; GFP no effect
# sialidase = test: Immunogenicity of sialidase vaccines (Western blot, antigen microarray); conditions: recombinant protein with Freund (in)complete adjuvants; three weeks after immunization
molecule,measurement,setting,value
"CCCCCCCCCCCCCCO[C@@H]1O[C@H](CO)[C@@H](O[C@H]2O[C@H](CO)[C@@H](O)[C@H](O)[C@H]2O)[C@H](O)[C@H]1O [TDM, tetradecyl-β-D-maltoside]",effect on stratum corneum barrier,"stratum corneum barrier; 0.125% in sterile water, 15 min",slightly disrupts
same,effect on epicutaneous immunization of E. coli based-tetanus toxin C fragment vaccine,"stratum corneum barrier; mouse, in vivo",greatly enhances
CNCCCN1c2ccccc2CCc2ccccc21 [desipramine],"P. acnes-induced cell death, reduced by (HaCaT)",[1],21.9%
same,P. acnes-induced ear swelling,P. acnes [2],significantly relieved
B1,enzyme activity in removing the sialic acids from the surface of human SZ95 sebocytes,[3],strongest enzyme activity
same,"elevation of ear thickness, reduced by","P. acnes [4]; recombinant sialidase with Freund (in)complete adjuvants vs GFP-immunized, P. acnes 10^7 CFU s.c.",more than 50%
same,"recovery of ear redness, days after P. acnes challenge","P. acnes [4]; sialidase-immunized, GFP-immunized 7 days",3 days
same,adherence of P. acnes into sebocytes,human SZ95 sebocytes,considerably increased
same,anti-sialidase antibody in serum (Western blot),sialidase,strong band
